B1: KGC-HDAC5c (C-terminal portion of Kusabira Green protein fused with HDAC5c), wild type [human] / KGN-SRD3c (N-terminal portion of Kusabira Green protein fused with SRD3c) [human] (parent complex)
chain 1: LFTTGVVYDTFMLKHQCMCGNTHVHPEHAGRIQSIWSRLQETGLLSKCERIRGRKATLDEIQTVHSEYHTLLYGTSPLNRQKLDSKKLLGPISQKMYAVLPCGGIGVDSDTVWNEMHSSSAVRMAVGCLLELAFKVAAGELKNGFAIIRPPGHHAEESTAMGFCFFNSVAITAKLLQQKLNVGKVLIVDWDIHHGNGTQQAFYNDPSVLYISLHRYDNGNFFPGSGAPEEVGGGPGVGYNVNVAWTGGVDPPIGDVEYLTAFRTVVMPIAHEFSPDVVLVSAGFDAVEGHLSPLGGYSVTARCFGHLTRQLMTLAGGRVVLALEGGHDLTAICDASEACVSALLSVELQPLDEAVLQQKPNINAVATLEKVIEIQSKHWSCVQKFAAGLGRSLREAQAGETEEAETVS
chain 2: EGGMSVTQCSKEDGRSSSGPPHETAAPKRTYDMMEGRVGRAISSASIEGLMGRAIPPERHSPHHLKEQHHIRGSITQGIPRSYVEAQEDYLRREAKLLKREGTPPPPPPSRDLTEAYKTQALGPLKLKPAHEGLVATVKEAGRSIHEIPREELRHTPELPLAPRPLKEGSITQGTPLKYDTGASTTGSKKHDVRSLIGSPGRTFPPVHPLDVMADARALERACY
B2: KGC-HDAC4c (C-terminal portion of Kusabira Green protein fused with HDAC4c), wild type [human] / KGN-SRD3c (N-terminal portion of Kusabira Green protein fused with SRD3c) [human] (parent complex)
chain 1: PRFTTGLVYDTLMLKHQCTCGSSSSHPEHAGRIQSIWSRLQETGLRGKCECIRGRKATLEELQTVHSEAHTLLYGTNPLNRQKLDSKKLLGSLASVFVRLPCGGVGVDSDTIWNEVHSAGAARLAVGCVVELVFKVATGELKNGFAVVRPPGHHAEESTPMGFCYFNSVAVAAKLLQQRLSVSKILIVDWDVHHGNGTQQAFYSDPSVLYMSLHRYDDGNFFPGSGAPDEVGTGPGVGFNVNMAFTGGLDPPMGDAEYLAAFRTVVMPIASEFAPDVVLVSSGFDAVEGHPTPLGGYNLSARCFGYLTKQLMGLAGGRIVLALEGGHDLTAICDASEACVSALLGNELDPLPEKVLQQRPNANAVRSMEKVMEIHSKYWRCLQRTTSTAGRSLIEAQTCENEEAET
chain 2: B1 chain 2

In one assay the parent is B1. Briefly: BiFC assay (fluorescence spectrophotometer); HEK293 cells; KGN-SRD3c (1 μg) and KGC-HDAC5c mutant (1 μg); 48 hours of transfection; whole cell lysates; parent: 9.3; read off a plot.
On to chain 1 N196D, for which the response was about 3.7 RFU.

On to chain 1 G326C, for which the response is about 4 RFU.

On to chain 1 G127E, for which the response was about 3.7 RFU.

With chain 1 C164R, the response is about 4.4 RFU.

Take chain 1 D110G: the response was about 5.1 RFU.

In the case of chain 1 G197D, the response was about 4 RFU.

Consider chain 1 F163S, for which the response was about 5.8 RFU.

For the variant chain 1 G152E, the response is about 4.1 RFU.

chain 1 F222L: the response is about 3.9 RFU.

Consider chain 1 G219W, for which the response was about 3.9 RFU.

On to chain 1 G295C, for which the response is about 5 RFU.

In the case of chain 1 G195C, the response is about 3.9 RFU.

chain 1 G325V: the response is about 4.1 RFU.

chain 1 S118P: the response was about 3.9 RFU.

Turning to chain 1 H154R, the response was about 4.9 RFU.

Take chain 1 P150L: the response was about 3.8 RFU.

In the case of chain 1 P151S, the response is about 5.9 RFU.

Variants of B2 are the subject of another assay. Briefly: BiFC assay (fluorescence spectrophotometer); HEK293 cells; KGN-SRD3c (1 μg) and KGC-HDAC4c mutant (1 μg); 48 hours of transfection; whole cell lysates; parent: 8; read off a plot.
Regarding chain 1 G195R, the response was about 4.6 RFU.

Consider chain 1 C164Y, for which the response is about 4.1 RFU.

On to chain 1 N196S, for which the response was about 4.2 RFU.

For chain 1 T111P, the response is about 4.2 RFU.

chain 1 A125D: the response is about 4.3 RFU.

For chain 1 F163S, the response was about 4.5 RFU.

As for chain 1 D110Y, the response was about 5.5 RFU.

Turning to chain 1 P151H, the response is about 4.1 RFU.

For chain 1 H154Y, the response is about 4.3 RFU.

chain 1 F222L: the response was about 4.1 RFU.

On to chain 1 S118P, for which the response is about 4.4 RFU.

chain 1 A155T: the response is about 4.6 RFU.

Consider chain 1 H194R, for which the response is about 3.9 RFU.

Consider chain 1 G197R, for which the response is about 6.8 RFU.

Turning to chain 1 G219A, the response is about 5.3 RFU.

Consider chain 1 P150H, for which the response was about 4.2 RFU.

For chain 1 G152E, the response is about 3.9 RFU.

The values are drawn from PMC4498904, “Mutagenesis Study Reveals the Rim of Catalytic Entry Site of HDAC4 and -5 as the Major Binding Surface of SMRT Corepressor” (PLoS ONE, 2015).
